Data from patent US20190134153A1, “IMMUNOMODULATORY EFFECT OF INHALED KINASE INHIBITOR PEPTIDES IN LUNG” (MOERAE MATRIX, INC., priority 2017, published 2019).

Columns and labels:
Experiment in all cases: Kinase Profiling Assay
Assay type in all cases: biochemical
Settings in all cases: 100 μM
CHK1(h) = molecular target: T1, CHK1(h) (Homo sapiens, UniProt O14757)
T1 sequence (O14757 1-476): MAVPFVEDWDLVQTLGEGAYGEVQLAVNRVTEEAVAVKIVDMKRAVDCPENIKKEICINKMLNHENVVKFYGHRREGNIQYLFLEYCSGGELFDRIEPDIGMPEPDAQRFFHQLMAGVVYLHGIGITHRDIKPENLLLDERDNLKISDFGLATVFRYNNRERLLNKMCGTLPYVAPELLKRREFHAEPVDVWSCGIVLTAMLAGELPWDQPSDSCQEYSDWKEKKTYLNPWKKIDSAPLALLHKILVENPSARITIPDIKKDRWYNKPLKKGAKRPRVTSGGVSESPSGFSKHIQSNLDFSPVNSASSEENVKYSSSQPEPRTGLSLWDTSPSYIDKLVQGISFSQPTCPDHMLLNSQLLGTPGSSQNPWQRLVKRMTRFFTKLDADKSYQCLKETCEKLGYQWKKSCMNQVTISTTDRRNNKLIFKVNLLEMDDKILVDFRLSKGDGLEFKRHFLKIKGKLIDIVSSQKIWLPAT

JNK2α2(h) = JNK2α2(h) (Homo sapiens, UniProt P45984)
ALK4(h) = molecular target: T2, ALK4(h) (Homo sapiens, UniProt P36896)
T2 sequence (P36896 24-505): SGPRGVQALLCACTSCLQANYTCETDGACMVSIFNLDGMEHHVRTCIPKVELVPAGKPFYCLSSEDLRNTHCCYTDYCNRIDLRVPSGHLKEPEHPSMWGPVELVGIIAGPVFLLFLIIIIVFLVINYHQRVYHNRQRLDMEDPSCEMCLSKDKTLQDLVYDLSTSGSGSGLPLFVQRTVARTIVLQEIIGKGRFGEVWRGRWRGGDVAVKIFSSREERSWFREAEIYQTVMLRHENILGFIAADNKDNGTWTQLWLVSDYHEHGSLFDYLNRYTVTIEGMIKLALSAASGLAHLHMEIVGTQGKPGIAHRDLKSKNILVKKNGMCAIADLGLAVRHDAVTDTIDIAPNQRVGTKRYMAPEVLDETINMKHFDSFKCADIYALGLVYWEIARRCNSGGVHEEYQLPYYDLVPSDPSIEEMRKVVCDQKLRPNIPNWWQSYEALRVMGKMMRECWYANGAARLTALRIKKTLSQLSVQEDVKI

eEF-2K(h) = eEF-2K(h) (Homo sapiens, UniProt O00418)
BTK(R28H)(h) = BTK(R28H)(h) (Homo sapiens, UniProt Q06187, R28H)
Chain of BTK(R28H)(h) (Q06187 whole entry R28H): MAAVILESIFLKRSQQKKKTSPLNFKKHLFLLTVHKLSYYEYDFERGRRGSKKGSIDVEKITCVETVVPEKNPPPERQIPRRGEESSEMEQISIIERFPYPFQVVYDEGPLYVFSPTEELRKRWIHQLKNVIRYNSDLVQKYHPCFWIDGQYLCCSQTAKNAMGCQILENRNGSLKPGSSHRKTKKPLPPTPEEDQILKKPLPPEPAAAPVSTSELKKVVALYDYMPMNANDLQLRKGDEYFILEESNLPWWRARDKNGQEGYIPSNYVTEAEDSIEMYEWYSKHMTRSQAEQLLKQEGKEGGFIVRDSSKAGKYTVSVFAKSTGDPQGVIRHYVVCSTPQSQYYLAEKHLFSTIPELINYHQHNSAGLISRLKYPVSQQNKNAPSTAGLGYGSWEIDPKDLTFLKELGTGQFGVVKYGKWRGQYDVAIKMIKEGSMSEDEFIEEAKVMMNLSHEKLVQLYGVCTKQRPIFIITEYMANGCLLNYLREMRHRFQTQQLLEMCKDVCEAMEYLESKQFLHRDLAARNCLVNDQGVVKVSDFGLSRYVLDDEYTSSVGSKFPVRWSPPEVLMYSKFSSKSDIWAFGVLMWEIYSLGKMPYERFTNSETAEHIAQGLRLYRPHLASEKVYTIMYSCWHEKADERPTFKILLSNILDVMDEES

CaMKIδ(h) = CaMKIδ(h) (Homo sapiens, UniProt Q8IU85)
Chain of CaMKIδ(h) (Q8IU85 whole entry): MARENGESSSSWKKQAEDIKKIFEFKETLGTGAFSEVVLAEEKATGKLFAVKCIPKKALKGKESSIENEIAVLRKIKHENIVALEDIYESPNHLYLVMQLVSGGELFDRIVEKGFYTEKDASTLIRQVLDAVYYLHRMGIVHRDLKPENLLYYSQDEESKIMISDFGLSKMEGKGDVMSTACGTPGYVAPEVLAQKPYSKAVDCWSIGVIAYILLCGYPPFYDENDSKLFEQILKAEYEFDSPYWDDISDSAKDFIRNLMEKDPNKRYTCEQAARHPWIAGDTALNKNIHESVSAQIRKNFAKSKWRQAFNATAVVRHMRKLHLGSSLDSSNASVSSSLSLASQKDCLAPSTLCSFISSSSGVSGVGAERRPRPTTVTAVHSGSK

EGFR(L861Q)(h) = EGFR(L861Q)(h) (Homo sapiens, UniProt P00533, L861Q)
DYRK2(h) = molecular target: T3, DYRK2(h) (Homo sapiens, UniProt Q92630)
T3 sequence (Q92630 1-601): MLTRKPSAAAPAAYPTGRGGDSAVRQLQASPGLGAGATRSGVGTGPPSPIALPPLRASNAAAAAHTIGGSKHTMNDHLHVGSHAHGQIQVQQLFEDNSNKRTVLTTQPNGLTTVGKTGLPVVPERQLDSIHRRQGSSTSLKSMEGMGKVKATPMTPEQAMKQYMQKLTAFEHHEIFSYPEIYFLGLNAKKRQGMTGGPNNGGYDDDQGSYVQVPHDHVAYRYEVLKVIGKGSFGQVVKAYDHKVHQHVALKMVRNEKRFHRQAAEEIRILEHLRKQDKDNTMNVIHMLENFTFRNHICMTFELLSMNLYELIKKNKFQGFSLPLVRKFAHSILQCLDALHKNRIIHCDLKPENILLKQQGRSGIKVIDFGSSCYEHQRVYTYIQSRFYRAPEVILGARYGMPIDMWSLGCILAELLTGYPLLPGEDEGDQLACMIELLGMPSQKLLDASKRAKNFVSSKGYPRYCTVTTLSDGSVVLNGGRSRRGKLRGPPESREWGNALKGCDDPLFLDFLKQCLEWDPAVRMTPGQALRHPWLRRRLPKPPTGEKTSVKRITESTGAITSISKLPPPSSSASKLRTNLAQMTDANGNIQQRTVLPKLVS

EphB4(h) = molecular target: T4, EphB4(h) (Homo sapiens, UniProt P54760)
T4 sequence (P54760 16-987): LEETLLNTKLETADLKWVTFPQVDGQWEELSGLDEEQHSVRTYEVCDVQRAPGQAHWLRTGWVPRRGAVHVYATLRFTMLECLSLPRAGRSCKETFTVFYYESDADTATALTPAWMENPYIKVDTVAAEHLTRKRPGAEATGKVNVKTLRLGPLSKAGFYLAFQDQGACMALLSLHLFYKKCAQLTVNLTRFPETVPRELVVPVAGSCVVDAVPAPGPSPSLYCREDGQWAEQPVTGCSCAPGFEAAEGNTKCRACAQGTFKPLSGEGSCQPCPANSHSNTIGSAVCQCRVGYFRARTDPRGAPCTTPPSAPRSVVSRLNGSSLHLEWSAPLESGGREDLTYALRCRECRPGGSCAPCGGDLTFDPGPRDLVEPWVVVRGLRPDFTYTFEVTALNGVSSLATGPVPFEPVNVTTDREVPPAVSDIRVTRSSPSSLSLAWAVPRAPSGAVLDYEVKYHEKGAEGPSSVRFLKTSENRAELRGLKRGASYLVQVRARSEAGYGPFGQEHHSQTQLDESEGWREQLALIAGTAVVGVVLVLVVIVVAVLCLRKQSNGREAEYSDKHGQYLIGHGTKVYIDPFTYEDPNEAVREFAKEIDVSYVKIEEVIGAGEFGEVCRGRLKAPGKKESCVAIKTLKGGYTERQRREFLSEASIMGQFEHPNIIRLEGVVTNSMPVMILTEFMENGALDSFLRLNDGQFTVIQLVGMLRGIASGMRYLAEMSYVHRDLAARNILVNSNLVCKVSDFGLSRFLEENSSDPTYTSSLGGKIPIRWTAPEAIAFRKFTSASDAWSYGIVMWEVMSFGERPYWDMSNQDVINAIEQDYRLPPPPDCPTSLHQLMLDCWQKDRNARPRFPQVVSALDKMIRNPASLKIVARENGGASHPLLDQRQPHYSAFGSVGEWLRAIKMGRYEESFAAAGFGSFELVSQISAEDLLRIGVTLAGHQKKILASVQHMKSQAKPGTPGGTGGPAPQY

Sequence	% activity (CHK1(h)) [%]	% activity (JNK2α2(h)) [%]	% activity (ALK4(h)) [%]	% activity (eEF-2K(h)) [%]	% activity (BTK(R28H)(h)) [%]	% activity (CaMKIδ(h)) [%]	% activity (EGFR(L861Q)(h)) [%]	% activity (DYRK2(h)) [%]	% activity (EphB4(h)) [%]
FAKLAARLYRKALARQLGVAA [MMI-0300]	91	98	140	91	74	10	25	155	44
HRRIKAWLKKIKALARQLGVAA [MMI-0500]	65	81	81	43	10	0	15	127	38
KAFAKLAARLYRKALARQLGVAA [MMI-0400]	87	96	130	43	24	17	22	195	28
YARAAARQARAKALNRQLGVA [MMI-0200]	–	–	152	–	–	47	74	142	131
